Test [1] deals with T1, PIM (Xenopus laevis, UniProt Q91822).
T1 construct: made in house; host or cells: bacterial culture
In words: Phosphorylation of substrate immobilized on covalent, amine-binding plates. In kind it is biochemical. The note with it: amine-binding plate. On the procedure: (§1) The polylysine-conjugated peptide substrate was diluted with a PBS buffer (pH 7.4) to a concentration of 0.1 mg/mL. Then 100 μL of the diluted solution was placed into each well of the covalent, amine-binding plate. The plate was incubated at room temperature for one hour and then washed with the PBS buffer three times and distilled water once. The substrate-immobilized plate was then phosphorylated as using standard assay conditions: 10 μL of the indicated enzyme, 15 μL of ADB and 5 μL of γ-^32P-ATP at room temperature for 15 minutes. After phosphorylation, the plate was rinsed sequentially with water, 1% phosphoric acid solution, water, and ethanol. The radioactivity in each well was determined using a Trilux Microbeta liquid scintillation counter. Two polylysine-conjugated substrates were immobilized on the covalent, amine-binding plates and phosphorylation of these immobilized polylysine-conjugated substrates was carried out. Both systems yielded reasonably high signals and the background signals on these plates were less than 500 cpm.
(§2) Effect of pH. In the case of immobilization to covalent, amine-binding plates, the pH effect was investigated. The immobilization of a conjugated-substrate to an covalent, amine-binding plate was achieved by incubating 100 μL of PBS buffer solution containing 10 μg of the conjugated-substrate at room temperature for an hour. […]

The target of test [2] is T2, CDK1 (Homo sapiens, UniProt P06493).
T2 construct: made in house; host or cells: bacterial culture
T2 sequence (P06493 whole entry, species assumed): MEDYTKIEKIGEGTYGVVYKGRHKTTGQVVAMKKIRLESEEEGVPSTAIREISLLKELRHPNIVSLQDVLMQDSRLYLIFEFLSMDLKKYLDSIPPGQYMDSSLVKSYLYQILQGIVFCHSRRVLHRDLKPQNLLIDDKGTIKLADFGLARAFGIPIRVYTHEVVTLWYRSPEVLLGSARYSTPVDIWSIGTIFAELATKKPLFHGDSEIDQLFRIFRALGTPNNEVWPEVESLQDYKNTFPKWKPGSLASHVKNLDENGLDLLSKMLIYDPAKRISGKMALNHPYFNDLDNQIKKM
The experiment in a line: Phosphorylation of peptide substrate in solution, spotted on phosphocellulose plate, scintillation counting. Type of test: biochemical. On the procedure: (§3) The phosphorylation assay mixture typically comprised:
(§4) The phosphorylation of the polymer-conjugated substrate was carried out in a solution containing 5 μL (˜5 μg peptide) of the conjugated substrate, 10 μL of the indicated enzyme, 10 μL of ADB, and 5 μL of γ-^32P-ATP. After incubation at room temperature for 15 minutes, the reaction was stopped by spotting 10 μL of the sample solution on a phosphocellulose plate and washing with water, 1% phosphoric acid solution, water and ethanol. The radioactivity in each well was measured using a Trilux Microbeta 1450 liquid scintillation counter (Wallac).

Test [3] concerns PAK. The test is described as above. Type of test: biochemical. On the procedure:
as §3, §4

The target of test [4] is T1, PIM. The description is as above. In kind it is biochemical. On the procedure: as §3, §4
Test [5] concerns the target T3, S6K (Homo sapiens, UniProt P23443).
T3 construct: made in house
The test is described as above. The note with it: for Ratio: after/before conjugation; for Radioactivity (cpm) Before Conjugation: free peptide before conjugation to polymer; for Radioactivity (cpm) Before Conjugation / Radioactivity (cpm) After conjugation: 15 min room temperature; for Radioactivity (cpm) After conjugation: peptide after conjugation to polymer. Type of test: biochemical. On the procedure: as §3, §4

Test [6] has as its target T4, PKA (Bos taurus, UniProt P00517).
T4 construct: PKA was isloated from bovine heart; from tissue; host or cells: bovine heart
The test is described as above. In kind it is biochemical, bovine. On the procedure:
CDK1, PAK and PIM were grown in bacterial culture at Kinetek Pharmaceuticals. PIM was isolated as described by Palaty et al. (1997) J Biol Chem 272:10514-10521. PKA was isloated from bovine heart. PKB was expressed in insect cells. S6K was isolated according to Grove et al. (1991) Mol Cell Bio 11:5541-5550. Kinase stock solutions were prepared at concentrations of 1-10 mg/mL in 150 mM Tris-Cl (pH 7.5) containing 5 mg/mL BSA and 100 mM MgCl2.
as §3, §4

The target in test [7] is T5, ERK1 (Homo sapiens, UniProt P27361). In words: Phosphorylation of substrate immobilized on covalent, amine-binding plates. In kind it is biochemical. As to conditions: amine-binding plate. On the procedure: as §1, §2
T5 sequence (P27361 whole entry, species assumed): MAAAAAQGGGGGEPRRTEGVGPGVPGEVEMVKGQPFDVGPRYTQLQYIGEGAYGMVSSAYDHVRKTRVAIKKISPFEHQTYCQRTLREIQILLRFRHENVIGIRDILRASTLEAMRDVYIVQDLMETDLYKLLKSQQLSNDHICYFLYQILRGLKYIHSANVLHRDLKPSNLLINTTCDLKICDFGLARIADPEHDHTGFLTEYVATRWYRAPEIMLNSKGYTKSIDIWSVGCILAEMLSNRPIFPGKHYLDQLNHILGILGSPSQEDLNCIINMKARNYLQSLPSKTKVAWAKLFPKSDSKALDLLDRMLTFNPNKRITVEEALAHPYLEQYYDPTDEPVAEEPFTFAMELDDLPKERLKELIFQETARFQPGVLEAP
The target of test [8] is T5, ERK1. The experiment in a line: Two-plate assay. In kind it is biochemical. On the procedure: (§5) The one-plate assay was compared with the two-plate assay under the normal conditions employed by the high throughput screening robotic system: a mixture of 5 μL substrate (5 μg), 10 µL enzyme, 10 μL ADB and 5 μL γ-^32P ATP was incubated at room temperature for 20 minutes. In the one-plate assay, a non-covalent, medium binding plate was used.

Test [9] addresses T5, ERK1. In words: Phosphorylation of peptide substrate in solution, spotted on phosphocellulose plate, scintillation counting. Type of test: biochemical. As to conditions: for Radioactivity (cpm), polymer effect on the phosphorylation of SEK1-CT by ERK1: SEK1-CT conjugated to the polymer named in the row; for Enhancing effect of polymeric carrier on the substrate activity: SEK1-CT conjugated to the polymer, result in words. On the procedure:
as §3, §4

The target of test [10] is T5, ERK1. In words: Phosphorylation of SEK1-CT immobilized on covalent, amine-binding strips. In kind it is biochemical. The note with it: conjugation simultaneous with phosphorylation, 15 min. On the procedure: Immobilization of SEK1-CT on covalent, amine-binding strips was also accomplished in a stepwise procedure: the polymer was immobilized on a covalent, amine-binding plate first (1 hour), then treated with SMCC (1 hour). Conjugation of SEK1-CT to the immobilized polylysine was achieved simultaneously with the phosphorylation by ERK1. The polymers used were polylysine of MW ˜35,000 and poly(lys, ala) 1:1 copolymer of MW ˜35,000. The assay mixture comprising 5 μL of SEK1-CT, 5 μL of ADB, 10 μL of ERK1 and 10 μL of γ-^32P-ATP was incubated at room temperature for 15 minutes. An aliquot (10 μL) was then spotted on a phosphocellulose plate to stop the reaction. The radioactivity on the plate was determined using a Trilux Microbeta liquid scintillation counter. The radioactivity remaining on the surface of the wells after the plate was washed with water and 1% phosphoric acid was determined using a Beckmann liquid scintillation counter. […] Also, the immobilization of polymer-conjugated SEK1-CT on the surfaces enhanced its phosphorylation. The radioactivity observed for the unconjugated SEK1-CT may result from non-specific binding of the amine groups on SEK1-CT to the plate. This non-specific binding could be eliminated by using polylysine as the blocking agent.

Test [11] addresses T5, ERK1. In words: One-plate assay (non-covalent, medium binding plate). Type of test: biochemical. On the procedure:
as §5

For test [12], the target named is T6, PKB (Homo sapiens, UniProt P31749).
T6 construct: made in house; host or cells: insect cells
T6 sequence (P31749 whole entry, species assumed): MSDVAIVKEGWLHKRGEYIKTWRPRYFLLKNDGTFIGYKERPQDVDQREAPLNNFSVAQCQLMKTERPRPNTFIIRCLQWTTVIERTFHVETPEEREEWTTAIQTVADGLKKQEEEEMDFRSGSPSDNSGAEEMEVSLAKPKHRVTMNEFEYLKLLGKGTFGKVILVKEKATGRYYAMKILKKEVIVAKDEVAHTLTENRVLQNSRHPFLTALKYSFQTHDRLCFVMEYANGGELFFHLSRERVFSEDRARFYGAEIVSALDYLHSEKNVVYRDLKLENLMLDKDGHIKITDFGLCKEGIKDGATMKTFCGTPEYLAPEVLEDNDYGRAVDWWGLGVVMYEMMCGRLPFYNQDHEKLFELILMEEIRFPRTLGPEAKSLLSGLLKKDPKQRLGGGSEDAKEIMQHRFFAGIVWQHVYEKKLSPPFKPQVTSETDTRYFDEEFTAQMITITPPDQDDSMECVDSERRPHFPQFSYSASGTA
The experiment in a line: Two-plate assay. Type of test: biochemical. On the procedure: as §5

The target of test [13] is T6, PKB. In words: Phosphorylation of peptide substrate in solution, spotted on phosphocellulose plate, scintillation counting. In kind it is biochemical. On the procedure:
as §3, §4

Test [14] concerns the target T6, PKB. In words: One-plate assay (non-covalent, medium binding plate). Type of test: biochemical. On the procedure: as §5
[15] abbreviates: free peptide before conjugation to polymer.
Setting [16] is: peptide after conjugation to polymer.
Setting [17] is: conjugated substrate, 20 minutes.

T1 sequence (Q91822 whole entry): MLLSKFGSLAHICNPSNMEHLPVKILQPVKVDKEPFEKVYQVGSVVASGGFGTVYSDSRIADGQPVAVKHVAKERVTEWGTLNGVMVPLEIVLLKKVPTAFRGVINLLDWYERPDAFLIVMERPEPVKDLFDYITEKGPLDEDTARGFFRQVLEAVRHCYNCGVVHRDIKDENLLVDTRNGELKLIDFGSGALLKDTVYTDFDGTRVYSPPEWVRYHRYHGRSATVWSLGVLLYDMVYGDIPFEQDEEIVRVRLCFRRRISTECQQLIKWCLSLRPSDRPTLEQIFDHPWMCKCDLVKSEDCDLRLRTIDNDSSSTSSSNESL
T3 sequence (P23443 whole entry): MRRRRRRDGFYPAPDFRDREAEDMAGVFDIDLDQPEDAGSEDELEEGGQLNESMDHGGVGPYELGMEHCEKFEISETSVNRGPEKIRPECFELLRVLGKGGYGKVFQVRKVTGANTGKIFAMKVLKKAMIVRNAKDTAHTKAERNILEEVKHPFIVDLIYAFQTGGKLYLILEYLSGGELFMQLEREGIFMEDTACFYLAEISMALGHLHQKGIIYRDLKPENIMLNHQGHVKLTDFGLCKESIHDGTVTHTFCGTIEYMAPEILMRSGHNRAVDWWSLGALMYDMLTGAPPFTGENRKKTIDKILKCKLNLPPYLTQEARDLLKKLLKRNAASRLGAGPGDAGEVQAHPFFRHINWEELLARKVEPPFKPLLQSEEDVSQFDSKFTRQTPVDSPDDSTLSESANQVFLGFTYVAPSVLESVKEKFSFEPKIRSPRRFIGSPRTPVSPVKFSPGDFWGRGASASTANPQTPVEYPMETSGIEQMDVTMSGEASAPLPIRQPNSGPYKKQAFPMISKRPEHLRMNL

For the substance CGRTGRRNSI [CAPK-sub], the “Radioactivity (cpm) Free substrate” value in test [1] is listed as “≦300 cpm”. In addition, the Ratio in [2] (after/before conjugation) was 3.76; in test [3] (after/before conjugation), 2.14; in [4] (after/before conjugation) it was 2.31; in [5], 6.25; in test [6] (after/before conjugation) it was 1.10. Further, the “Radioactivity (cpm) Before Conjugation” value in test [2] (setting [15]) was determined as 12500 cpm; in [3] (setting [15]) it was 31050 cpm; in test [4] (setting [15]), 18000 cpm; in test [5], 10000 cpm; in test [6] (setting [15]), 35680 cpm. Also, the “Radioactivity (cpm) After conjugation” value stood at 47000 cpm in test [2] (setting [16]); 66510 cpm in test [3] (setting [16]); 41500 cpm in test [4] (setting [16]); 62500 cpm in test [5]; 39425 cpm in [6] (setting [16]).

Take CKILDQMPATPSSPMYVD [SEK1-CT]: the “Radioactivity (cpm) Free substrate” value in test [7] is recorded as below 500 cpm. The “S/N ratio SEK1-CT” value in [8] was determined as 16; in test [11], 117. Moreover, the “Radioactivity (cpm) SEK1-CT/ERK1 Free” value in test [8] (free substrate, 20 minutes) came out at 2800 cpm. In addition, in [9] (after/before conjugation), the Ratio turned out to be 48.28. In addition, the “Radioactivity (cpm) Before Conjugation” value in test [9] (setting [15]) was found to be 2390 cpm. For the same substance, in [9] (setting [16]), the “Radioactivity (cpm) After conjugation” value is reported as 115400 cpm. In test [10], the “Radioactivity (cpm)” value is on record as 7570 cpm. Moreover, the “Radioactivity (cpm) SEK1-CT/ERK1 Conj” value in test [11] (setting [17]) was 41000 cpm.

As for CKRPRAASFAE [PKB-sub], the entries for the “S/N ratio PKB-sub” value in [12] and in test [14] were 22 and 81, respectively. The “Radioactivity (cpm) PKB-sub/PKB Free” value in test [12] (free substrate, 20 minutes) worked out at 38000 cpm. Besides, in [13] (after/before conjugation), the Ratio is given as 1.91. In addition, the “Radioactivity (cpm) Before Conjugation” value in test [13] (setting [15]) amounted to 54300 cpm. Also, in [13] (setting [16]), the “Radioactivity (cpm) After conjugation” value was determined as 103900 cpm. Besides, in [14] (setting [17]), the “Radioactivity (cpm) PKB-sub/PKB Conj” value was determined as 48300 cpm.

Consider CKRRRLASLR [S6K-sub], for which, in test [5], the Ratio came to 2.82, the “Radioactivity (cpm) Before Conjugation” value came to 14000 cpm and the “Radioactivity (cpm) After conjugation” value was 39450 cpm.

In the case of Polyarginine, in test [9], the “Radioactivity (cpm), polymer effect on the phosphorylation of SEK1-CT by ERK1” value is on record as 91431 cpm and the “Enhancing effect of polymeric carrier on the substrate activity” value (shortened to “Enhancing effect of polymeric carrier”) is “certain enhancement”.

In the case of Polyhistidine, in test [9], the “Enhancing effect of polymeric carrier” value is “marginal enhancing effect”.

For the substance Polylysine, in [9], the “Radioactivity (cpm), polymer effect on the phosphorylation of SEK1-CT by ERK1” value is reported as 211234 cpm and the “Enhancing effect of polymeric carrier” value was “highest enhancing effect”.

Source of the values: patent publication US6548266B1, “Assay for detecting the enzymatic activity of a phosphorylation enzyme using enhanced signal generation” (Kinetek Pharmaceuticals, Inc., priority 1999, dated 2003).
